Target: the molecule itself
Assay: SEC-MALS

B1: Gemin5 TPR-like domain (residues 807-1097) (domain or fragment)
chain: TPVSSGFEKSKVTINNKVILLKKEPPKEKPETLIKKRKARSLLPLSTSLDHRSKEELHQDCLVLATAKHSRELNEDVSADVEERFHLGLFTDRATLYRMIDIEGKGHLENGHPELFHQLMLWKGDLKGVLQTAAERGELTDNLVAMAPAAGYHVWLWAVEAFAKQLCFQDQYVKAASHLLSIHKVYEAVELLKSNHFYREAIAIAKARLRPEDPVLKDLYLSWGTVLERDGHYAVAAKCYLGATCAYDAAKVLAKKGDAASLRTAAELAAIVGEDELSASLALRCAQELLL
For B1, the “stoichiometry N” value was 2.

Reference: doi:10.1101/654111 (bioRxiv, 2019)
